{"source": "patent US6893843B2", "about": "“Nucleic acids” (priority 1990, dated 2005)", "key": {"human leukocyte elastase": {"molecular_target": "T1, human leukocyte elastase (Homo sapiens, UniProt P08246)", "T1 construct": "purchased Elastin Products Corporation, Pacific, Mo., USA", "T1 sequence (P08246 30-267)": "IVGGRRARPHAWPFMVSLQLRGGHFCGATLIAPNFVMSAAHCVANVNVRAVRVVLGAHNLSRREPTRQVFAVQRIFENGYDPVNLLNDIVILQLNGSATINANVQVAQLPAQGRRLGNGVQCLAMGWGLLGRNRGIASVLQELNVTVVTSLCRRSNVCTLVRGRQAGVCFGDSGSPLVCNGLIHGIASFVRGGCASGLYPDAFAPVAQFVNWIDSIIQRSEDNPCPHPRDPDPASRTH", "experiment": "Inhibition of human leukocyte elastase (AAPVpNA substrate; Ki by Green and Work)", "assay_type": "biochemical", "conditions": "for Ki: method of Green and Work", "description": "The potency of polypeptides of the present invention to act as an elastase inhibitor was determined by the ability of a compound of the invention to inhibit the action of human leukocyte elastase (HLE) on a low molecular weight peptide substrate. The potency of an inhibitor was evaluated by obtaining a kinetic determination of the dissociation constant, Ki, of the complex formed from the interaction of th inhibitor with HLE. The substrate used was the anilide methoxysuccinyl-alanyl-alanyl-prolyl-valine-p-nitroanilide as described by K. Nakajima et al. in the J. Biol. Chem., 254: 4027-4032 (1979) and by T. Teshima et al. in J. Biol Chem., 257: No 9, 5085-5091 (1982). The HLE enzyme used in these studies may be obtained from Elastin Products of St. Louis, Mo. or can be purified according to B. R. Viscarello et al. in Preparative Biochemistry, Vol. 13, pages 57-67, (1983).\nThe activity of human leukocyte elastase (EC 3.4.21.37) was determined according to the method of Nakajima et al (7). Inhibition of HLE was determined by the use of the synthetic peptide methoxy-succinyl-alanyl-alanyl-prolyl-valyl-p-nitro anilide (AAPVpNA, Sigma).\nSample (100 μl) and 100 μl HLE (200 ng/ml; Elastin Products Corporation, Pacific, Mo., USA) in assay buffer (0.1M, HEPES, 0.5M NaCl, 10% DMSO, pH 7.5) were incubated for 30 minutes at room temperature. Substrate (800 μl 0.5 mM) in assay buffer was then added.\nChanges in absorbance at 405 nm were followed up to 1 hour and the %-inhibition was calculated from the remaining activity and controls. The dissociation constant (Ki) was determined according to the method of Green and Work (8) in the same system, using 2 mM substrate and (1 μg/ml) HLE (final concentrations)."}, "[1]": {"molecular_target": "porcine pancreatic elastase (Sus scrofa, UniProt P00772)", "sequence (P00772 27-266)": "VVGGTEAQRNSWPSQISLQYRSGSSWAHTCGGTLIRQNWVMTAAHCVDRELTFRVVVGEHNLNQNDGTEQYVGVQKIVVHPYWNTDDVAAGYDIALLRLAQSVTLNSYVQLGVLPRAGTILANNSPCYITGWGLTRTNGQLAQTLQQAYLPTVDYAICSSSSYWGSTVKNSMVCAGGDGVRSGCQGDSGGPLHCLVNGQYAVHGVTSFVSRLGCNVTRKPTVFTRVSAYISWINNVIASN", "experiment": "Inhibition of porcine pancreatic elastase (AAPV-AFC fluorogenic substrate)", "assay_type": "biochemical", "description": "The activity of porcine pancreatic elastase (E.C. 3.4.21.36) was determined using the flourogenic substrate methoxy-succinyl-alanyl-alanyl-prolyl-valyl-trifluoromethylcoumarine (AAPV-AFC, Bachem, Bubendorf, Switzerland).\nElastase (100 μl) and inhibitor (100 μl) were pre-incubated for 30 minutes. A solution of substrate (1.8 ml of a 0.1 mM solution) was then added. Flourescence, Ex 400 Em 505, was followed and the %-inhbition was calculated from the initial activity of samples and controls. The dissociation constant (Ki) was determined according to the method of Green and Work (8)."}, "human cathepsin G": {"molecular_target": "T2, human cathepsin G (Homo sapiens, UniProt P08311)", "T2 sequence (P08311 21-255)": "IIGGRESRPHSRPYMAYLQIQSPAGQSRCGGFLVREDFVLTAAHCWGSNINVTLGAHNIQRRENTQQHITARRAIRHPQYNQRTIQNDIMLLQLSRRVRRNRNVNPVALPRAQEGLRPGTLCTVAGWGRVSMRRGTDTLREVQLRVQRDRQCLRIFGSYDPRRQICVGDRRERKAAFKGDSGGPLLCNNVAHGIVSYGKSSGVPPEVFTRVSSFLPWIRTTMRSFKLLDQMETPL", "experiment": "Inhibition of cathepsin G (AAPFpNA substrate)", "assay_type": "biochemical", "conditions": "substrate 0.5 mM AAPFpNA; inhibitor up to 1 μg/ml (threefold molar); n.i. = no inhibition", "description": "(§1) The activities of cathepsin G and Alpha-chymotrypsin were determined according to the method of Nakajima et al (9) using an analogue to HLE—succinyl-alanyl-alanyl-prolyl-phenylalanyl-p-nitroanilide (AAPFpNA, Sigma). For inhibition experiments, the highest concentration of the inhibitor was 1 μg/ml, representing a threefold molar concentration as compared to cathepsin G and Alpha-chymotrypsin."}, "Alpha-chymotrypsin": {"molecular_target": "Alpha-chymotrypsin (Bos taurus, UniProt P00766)", "experiment": "Inhibition of Alpha-chymotrypsin (AAPFpNA substrate)", "assay_type": "biochemical", "description": "as §1"}, "trypsin": {"tested_on": "trypsin", "experiment": "Inhibition of trypsin (TGPLpNA substrate)", "assay_type": "biochemical", "description": "(§2) 100 μl inhibitor (1 μg/ml) and 100 μl trypsin (1 μg/ml) or plasmin (1 μg/ml) as appropriate were incubated for 30 minutes before adding the substrate, 0.1 mM tosyl-glycyl-prolyl-lysin-pNA (Boehringer Mannheim, FRG) in 0.05M HEPES, 0.12M NaCl, pH7.5."}, "plasmin": {"molecular_target": "plasmin (Homo sapiens, UniProt P00747)", "sequence (P00747 581-810 limits assumed, species assumed)": "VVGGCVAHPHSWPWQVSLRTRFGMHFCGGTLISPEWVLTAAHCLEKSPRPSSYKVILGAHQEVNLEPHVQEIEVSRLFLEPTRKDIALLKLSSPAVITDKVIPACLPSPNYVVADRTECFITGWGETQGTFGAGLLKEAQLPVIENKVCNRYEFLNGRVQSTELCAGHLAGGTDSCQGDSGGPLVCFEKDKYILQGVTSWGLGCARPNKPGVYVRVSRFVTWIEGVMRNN", "sequence (P00747 97-580 partner limits assumed, species assumed)": "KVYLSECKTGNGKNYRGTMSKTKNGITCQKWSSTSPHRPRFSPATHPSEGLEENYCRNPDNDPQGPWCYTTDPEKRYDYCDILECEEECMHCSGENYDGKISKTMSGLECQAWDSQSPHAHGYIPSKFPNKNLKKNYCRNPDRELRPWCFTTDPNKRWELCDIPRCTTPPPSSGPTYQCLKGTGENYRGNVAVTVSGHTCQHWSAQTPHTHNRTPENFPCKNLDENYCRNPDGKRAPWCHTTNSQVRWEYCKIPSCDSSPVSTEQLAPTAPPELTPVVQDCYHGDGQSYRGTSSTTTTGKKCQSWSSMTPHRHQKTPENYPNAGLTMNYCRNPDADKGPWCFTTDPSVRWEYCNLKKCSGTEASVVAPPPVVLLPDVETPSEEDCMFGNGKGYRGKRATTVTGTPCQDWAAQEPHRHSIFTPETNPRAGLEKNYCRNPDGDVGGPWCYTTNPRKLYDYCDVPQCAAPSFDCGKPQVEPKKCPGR", "experiment": "Inhibition of plasmin (TGPLpNA substrate)", "assay_type": "biochemical", "description": "as §2"}, "Proteinase 3": {"molecular_target": "T3, Proteinase 3 (Homo sapiens, UniProt P24158)", "T3 construct": "Proteinase 3 was purified from human polymorphonuclear leukocytes using the method of Ludemann; from tissue; host or cells: human polymorphonuclear leukocytes", "T3 sequence (P24158 28-256)": "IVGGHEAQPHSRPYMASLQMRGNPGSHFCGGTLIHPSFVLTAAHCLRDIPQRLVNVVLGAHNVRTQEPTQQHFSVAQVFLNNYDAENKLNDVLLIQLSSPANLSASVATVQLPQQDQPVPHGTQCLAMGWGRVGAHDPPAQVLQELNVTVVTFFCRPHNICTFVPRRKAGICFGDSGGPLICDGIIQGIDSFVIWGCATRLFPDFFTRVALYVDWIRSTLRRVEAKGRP", "experiment": "Inhibition of proteinase 3 (elastin-FITC hydrolysis)", "assay_type": "biochemical", "conditions": "37° C., 4 hours, pH 8.5, read-out: IC50 against proteinase 3", "description": "Proteinase 3 was purified from human polymorphonuclear leukocytes using the method of Ludemann reported in J Exp Med 171, 357-362, 1990. The absence of human leukocyte elastase and cathespin G was confirmed by the lack of activity of the proteinase 3 preparation with the substrates methoxy-succinyl-ala-ala-pro-val-p-nitroanilide (AAPVpNA), and succinyl-ala-ala-phe-p-nitroanilide respectively according to the method of Nakajima (7).\nThe elastinolytic activity was determined by hydrolysis of bovine ligamentum nuchae elastin-FITC (Elastin Products Corporation, USA).\nThe proteinase 3 preparation (1 μl) was preincubated at 37° C. for 30 minutes with the elastase inhibitor of formula I (0-1 μg) in carbonate buffer (50 μl, 0.1M), NaN3 (0.02%), Brij 35 (0.01%), pH8,5. Elastin-FITC (1 mg) in carbonate buffer (100 μl, 0.1M), NaN3 (0.02%), Brij 35 (0.01%), pH8.5. The mixture was incubated at 37° C. with gentle agitation for 4 hours, and then centrifuged at 6000×g. The supernatants were diluted 1:20 and the fluorescence of the solubilised elastin-FITC was determined using a Perkin Elmer LS 50 microtiterplate reader at Ex489 nm, Em 513 nm. Fluorescence was corrected by enzyme free controls and inhibition expressed in % of inhibitor free controls."}, "Isoelectric focussing": {"experiment": "Isoelectric focussing", "assay_type": "physicochemical", "conditions": "silver stain and enzymatic detection in gel slices", "description": "Isoelectric focussing was performed by using Servalyt Precoates pH 3-10 and Test-Mix 9 (Serva). Prefocussing was for 30 minutes at 3 watts, and silver stain (Sigma) or Comassie blue R stain was used according to Serva instructions. In parallel, the precoates were sliced and eluted to localise inhibitory active peptides. Approximately 1 mm slices were eluted with 100 μl acetonitrile. The eluates were allowed to dry and were resolved in 100 μl of buffer (0.1M HEPES, 0.5M NaCl, 1% BSA, pH 7.5) containing 20 ng HLE. After 30 minutes incubation the remaining HLE activity was determined."}, "Acid stability": {"experiment": "Acid stability", "assay_type": "physicochemical"}, "[2]": {"conditions": "at least threefold excess of the inhibitor"}, "[3]": {"conditions": "substrate 0.1 mM TGPLpNA, inhibitor 1 μg/ml, n.i. = no inhibition"}}, "note": "Read-outs that look alike come from different tables or passages of the source. No end group written: not given here."}
{"sequence": "AQEPVKGPVSTKPGSCPIILIRCAMLNPPNRCLKDTDCPGIKKCCEGSCGMACFVPQ (cysteine pairing not given here) [prominent inhibitor]", "values": [{"measurement": "inhibition of HLE (in words)", "setting": "human leukocyte elastase", "value": "found to inhibit"}, {"measurement": "Ki", "setting": "human leukocyte elastase; Poly LC-HPLC peak compared with inhibitor from human skin, read-out: Ki, titrated against HLE", "value": 0.33, "unit": "nM"}, {"measurement": "Ki", "setting": "human leukocyte elastase; substrate 2 mM AAPVpNA, 1 μg/ml HLE, read-out: DISSOCIATION CONSTANT (Ki), human leukocyte elastase", "value": 0.3, "unit": "nM"}, {"measurement": "inhibition of porcine pancreatic elastase (in words)", "setting": "[1]", "value": "found to inhibit"}, {"measurement": "Ki", "setting": "[1]; substrate 0.1 mM AAPV-AFC, method of Green and Work, read-out: DISSOCIATION CONSTANT (Ki), porcine pancreatic elastase", "value": 1, "unit": "nM"}, {"measurement": "DISSOCIATION CONSTANT (Ki), human cathepsin G", "setting": "human cathepsin G", "value": "n.i."}, {"measurement": "inhibition of Alpha-chymotrypsin (in words)", "setting": "Alpha-chymotrypsin; [2]", "value": "neither Alpha- chymotrypsin, nor trypsin and plasmin were significantly inhibited"}, {"measurement": "DISSOCIATION CONSTANT (Ki), Alpha-chymotrypsin", "setting": "Alpha-chymotrypsin; substrate 0.5 mM AAPFpNA, inhibitor up to 1 μg/ml (threefold molar), n.i. = no inhibition", "value": "n.i."}, {"measurement": "inhibition of trypsin (in words)", "setting": "trypsin; [2]", "value": "neither Alpha- chymotrypsin, nor trypsin and plasmin were significantly inhibited"}, {"measurement": "DISSOCIATION CONSTANT (Ki), trypsin", "setting": "trypsin; [3]", "value": "n.i."}, {"measurement": "inhibition of plasmin (in words)", "setting": "plasmin; [2]", "value": "neither Alpha- chymotrypsin, nor trypsin and plasmin were significantly inhibited"}, {"measurement": "DISSOCIATION CONSTANT (Ki), plasmin", "setting": "plasmin; [3]", "value": "n.i."}, {"measurement": "IC50", "setting": "Proteinase 3", "value": 9.5, "unit": "nM"}, {"measurement": "isoelectric point", "setting": "Isoelectric focussing", "value": 9.7, "unit": "pH"}, {"measurement": "acid stability", "setting": "Acid stability", "value": "acid stable"}]}
